Laboratory results from patent US6727084B1, “Cold-active beta-galactosidase, the process for its preparation and the use thereof” (Universite de Liege, priority 1999, dated 2004).

Substrate: OC[C@H]1O[C@@H](O[C@H]2[C@H](O)[C@@H](O)C(O)O[C@@H]2CO)[C@H](O)[C@@H](O)[C@H]1O
Assay: kinetics of LMG P-19143 β-galactosidase with lactose as substrate (galactose dehydrogenase assay)
Assay type: biochemical, Pseudoalteromonas haloplanktis LMG P-19143
Details: other: lactose (1 mM to 50 mM) as substrate, 25° C., pH 7.3
Source text: The definition of enzyme activity units can be defined according to the substrate used with lactose as a substrate, the unit of activity is defined as the amount of enzyme which releases one micro-mole glucose in one minute under standard reaction conditions (temperature, pH). Another commonly used substrate is ortho-nitrophenyl-β-D galactopyranoside (ONPG) and in this case, the unit of activity is defined as the amount of enzyme which hydrolyses one micro-mole of ONPG in one minute under standard reaction conditions.
Km was also determined at 25° C. with lactose (1 mM to 50 mM) as a substrate.

B1: Pseudoalteromonas haloplanktis LMG P-19143 cold-active β-galactosidase (lac Z), native, SEQ ID NO: 2 (Pseudoalteromonas haloplanktis) (protein)
chain: MTSLQHIINRRDWENPITVQVNQVKAHSPLNGFKTIEDARENTQSQKKSLNGQWDFKLFDKPEAVDESLLYEKISKELSGDWQSITVPSNWQLHGFDKPIYCNVKYPFAVNPPFVPSDNPTGCYRTEFTITPEQLTQRNHIIFEGVNSAFHLWCNGQWVGYSQDSRLPSEFDLSELLVVGTNRIAVMVIRWSDGSYLEDQDMWWLSGIFRDVNLLTKPQSQIRDVFITPDLDACYRDATLHIKTAINAPNNYQVAVQIFDGKTSLCEPKIQSTNNKRVDEKGGWSDVVFQTIAIRSPKKWTAETPYLYRCVVSLLDEQGNTVDVEAYNIGFRKVEMLNGQLCVNGKPLLIRGVNRHEHHPENGHAVSTADMIEDIKLMKQNNFNAVRTAHYPNHPLFYELCDELGLYVVDEANIETHGMFPMGRLASDPLWAGAFMSRYTQMVERDKNHASIIIWSLGNECGHGANHDAMYGWSKSFDPSRPVQYEGGGANTTATDIICPMYSRVDTDIKDDAVPKYSIKKWLSLPGETRPLILCEYAHAMGNSLGSFDDYWQAFREYPRLQGGFIWDWVDQGLSKIDENGKHYWAYGGDFGDELNDRQFCINGLLFPDRTPHPSLFEAKYSQQHLQFTLREQNQNQNQNQYSIDVFSDYVFRHTDNEKLVWQLIQNGVCVEQGEMALNIAPQSTHTLTIKTKTAFEHGAQYYLNLDVALINDSHFANANHVMDSEQFKLINSNNLNSKSFASATEKSVISVNETDSHLSIENNTFKLVFNQQSGLIEQWLQDDTQVISSPLVDNFYRAPLDNDIGVSEVDNLDPNAWEARWSRAGIGQWQRTCSSINAVQSSVDVRITCVFNYEFNGVLQAQTQWLYTLNNTGTISLNVDVNLNDTLPPMPRIGLSTTINKQSDTKVNWLGLGPFENYPDRKSAARFGYYSLSLNELYTPYIFPTDNGLRSDCQLLSINNLIVTGAFLFAASEYSQNMLTQAKHTNELIADDCIHVHIDHQHMGVGGDDSWSPSTHKEYLLEQKNYNYSLTLTGGITT
notes: ORF of 1038 residues
  Km: 2400 µM
